In patent US20230060388A1 (SHANGHAI HENLIUS BIOTECH, published 2023):
One block for each binder: values may come before it.

How the values were obtained:
[1] = target: T1, his-tagged recombinant human TIGIT ECD (human, UniProt Q495A1 22-138); assay: Octet, antibody loaded on the sensor, his-tagged h-PD1 ECD injected first, his-tagged h-TIGIT ECD second
T1 construct: also called h-TIGIT ECD (his-tagged); not shown: his tag
T1 sequence: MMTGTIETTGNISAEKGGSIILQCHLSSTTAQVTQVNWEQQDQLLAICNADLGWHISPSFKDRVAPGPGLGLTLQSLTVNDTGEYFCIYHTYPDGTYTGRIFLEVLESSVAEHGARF

[2] = target: T2, human PD1 expressed on transfected Jurkat cells (human, UniProt Q15116 25-288); assay: PD1 WCB: whole cell binding, flow cytometry, h-PD1 Jurkat cells; mean
T2 construct: whole, on cells; also called h-PD1; Programmed cell death protein 1
T2 sequence (Q15116 25-288): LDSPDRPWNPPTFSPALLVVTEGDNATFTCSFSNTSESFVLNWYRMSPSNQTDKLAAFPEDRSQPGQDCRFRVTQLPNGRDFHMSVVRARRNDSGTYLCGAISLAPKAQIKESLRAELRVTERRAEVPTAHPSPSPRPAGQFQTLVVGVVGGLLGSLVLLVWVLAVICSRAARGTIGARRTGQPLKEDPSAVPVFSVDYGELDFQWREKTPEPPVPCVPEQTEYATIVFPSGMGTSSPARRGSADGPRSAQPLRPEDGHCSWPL
Protocol: The binding affinities of the BsAbs to human PD1 were also determined by whole cell binding assays using human PD1 transfected Jurkat cells. Antibodies were incubated with h-PD1 transfected Jurkat cells, and binding was determined using a secondary anti-h-IgG antibody conjugated with AlexaFluor488, which was detected by flow cytometry.

[3] = target: T2, human PD1 expressed on transfected …; assay: flow cytometry (whole cell binding) on h-PD1 transfected Jurkat cells; table under the graph, Average (n=4), SD 0.18
[4] = target: T2, human PD1 expressed on transfected …; assay: cell-based or functional assay
[5] = target: T3, human TIGIT expressed on cells (stably transfected Jurkat cells) (human, UniProt Q495A1 22-244); assay: cell-based or functional assay
T3 sequence: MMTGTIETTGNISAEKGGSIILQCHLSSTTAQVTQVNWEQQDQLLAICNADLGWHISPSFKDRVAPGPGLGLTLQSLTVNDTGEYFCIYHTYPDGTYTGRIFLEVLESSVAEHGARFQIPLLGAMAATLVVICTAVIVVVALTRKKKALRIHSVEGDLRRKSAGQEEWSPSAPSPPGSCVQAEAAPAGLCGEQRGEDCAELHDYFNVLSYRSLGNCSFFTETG

[6] = target: T4, recombinant mouse TIGIT (mouse, UniProt P86176 29-148, limits assumed); assay: ELISA, recombinant mouse-TIGIT
T4 sequence (looked up): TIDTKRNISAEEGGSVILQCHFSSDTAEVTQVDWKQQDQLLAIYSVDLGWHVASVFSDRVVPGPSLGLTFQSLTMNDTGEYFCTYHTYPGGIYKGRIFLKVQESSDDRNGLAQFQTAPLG

[7] = target: T5, recombinant human TIGIT extracellular domain (ECD) (human, UniProt Q495A1 22-138); assay: ELISA on recombinant human TIGIT ECD
T5 construct: also called h-TIGIT ECD; recombinant human TIGIT ECD
T5 sequence: T1 sequence
Protocol: (§1) FIGS. 8A-8C depict cross-binding activity of 2A3-Fc to human-, cyno- and mouse-TIGIT determined by ELISA assays. […] Reference Ab 2 is an anti-h-TIGIT reference antibody. Both 2A3-Fc and Reference Ab 2 bind to h-TIGIT with similar affinity. […] Both 2A3-Fc and Reference Ab 2 bind to cyno-TIGIT with similar affinity. […] Y axis represents OD450, X axis represents antibody concentrations in μg/ml.
(§2) Cross-species binding activity of 2A3-Fc to human, cynomolgus and mouse TIGIT was determined by ELISA assays, results of which are shown in FIGS. 8A-8C. 2A3-Fc bound to human, cynomolgus monkey but not mouse TIGIT.

[8] = target: T6, recombinant cynomolgus TIGIT (cynomolgus monkey); assay: ELISA on recombinant cyno-TIGIT
T6 construct: also called cyno-TIGIT; cyno-TIGIT ECD
Protocol: as §1, §2

[9] = target: T3, human TIGIT expressed on cells (stably …); assay: flow cytometry on h-TIGIT transfected Jurkat cells (whole cell binding), Alexa Fluor 488 [upper panel]

- EC50 [2]: 0.6 nM
- EC50 [3]: 0.36 nM
- EC50 (Mean, nM), PD1 Blockade Assay [4]: 0.73 nM
B1: parental anti-PD1 monoclonal antibody (antibody, human IgG4 S228P, kappa, V domains shown)
VH: QVQLVESGGGLVKPGGSLRLSCAASGFTFSNYGMSWIRQAPGKGLEWVSTISGGGSNIYYADSVKGRFTISRDNAKNSLYLQMNSLRAEDTAVYYCVSYYYGIDFWGQGTSVTVSS
VL: DIQMTQSPSSLSASVGDRVTITCKASQDVTTAVAWYQQKPGKAPKLLIYWASTRHTGVPSRFSGSGSGTDFTLTISSLQPEDFATYYCQQHYTIPWTFGGGTKLEIKR
notes: Antibody from WO 2018/052818 A1; also called aPD1; parental mAb anti-PD1
- binding result [1]: no binding (tested: concentrations not printed)

- EC50 (read off the curve) of the NFAT luciferase reporter activity, TIGIT blockade assay [lower panel] [5]: ~1 nM
- binding result [6]: no binding
- EC50 (read off the curve) [7]: ~0.1 µg/mL
- EC50 (read off the curve) [8]: ~0.1 µg/mL
- EC50 (read off the curve) [9]: ~0.5 nM
B2: 2A3-Fc (bivalent 2A3 antibody) (Fc fusion)
chain: QVQLVESGGGVVQPGRSLRLSCAASGGSFSSYPMGWFRQAPGKERESVAAISSDMRFTYYADSVKGRFTISRDNSKNTLYLQMNSLRAEDTAVYYCAARDSGVGYYSRAQWYDYWGQGTLVTVSS
notes: also called parental 2A3-Fc; 2A3 clone; not shown: human IgG1 CH2 and CH3 domains
